In article PMC6525264:

Tests used:
[1] = Western blot of media, sAPPβ (1A9); conditions: glycan lost; control: empty vector (Hyg) cell line
[2] = flow cytometry, cell surface APP, non-permeabilised cells; conditions: glycan lost; control: APPWT cell line

Substance	other: proteolytic processing [1]	localisation_or_trafficking [2]
β-Amyloid precursor protein (APP695): APPN467K	decreases	decreases
β-Amyloid precursor protein (APP695): APPN496K	decreases	decreases
